# Patent publication US20210139588A1 (STCUBE, published 2021)
# B1: anti-glycPD-1 monoclonal antibody STM432 (antibody, V domains shown)
# VH: EVMLVEPGGGLVKPGGSLKLSCAASGFTFSSYGMSWVRQTPEKRLEWVATISGGGANTYYPDTVKGRFTISRDNAKNTLYLQMNSLRSEDTALYYCARYGYDTVFAYWGQGTLVTVSA
# VL: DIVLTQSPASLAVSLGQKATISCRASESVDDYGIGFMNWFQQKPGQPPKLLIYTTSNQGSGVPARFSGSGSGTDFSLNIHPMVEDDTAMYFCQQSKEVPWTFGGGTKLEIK
# notes: Mouse monoclonal antibody from a hybridoma; also called MAb STM432
# B2: 4NQ mutant (unglycosylated) PD-1 expressed on 293T cells (PD-1-Flag) (receptor)
# chain: LDSPDRPWNPPTFSPALLVVTEGDQATFTCSFSQTSESFVLNWYRMSPSQQTDKLAAFPEDRSQPGQDCRFRVTQLPNGRDFHMSVVRARRQDSGTYLCGAISLAPKAQIKESLRAELRVTERRAEVPTAHPSPSPRPAGQFQTLVVGVVGGLLGSLVLLVWVLAVICSRAARGTIGARRTGQPLKEDPSAVPVFSVDYGELDFQWREKTPEPPVPCVPEQTEYATIVFPSGMGTSSPARRGSADGPRSAQPLRPEDGHCSWPL
# notes: also called PD-1 4NQ; not shown: Flag tag
# How the values were obtained:
# [1] = target: T1, N49Q mutant PD-1-Fc protein (Homo sapiens (Human), UniProt Q15116 25-170); assay: Western blot of PD-1-Fc proteins
# T1 construct: also called PD-1 with a mutant glycosylation site at position 49; not shown: Fc portion
# [2] = target: T2, N74Q mutant PD-1-Fc protein (Homo sapiens (Human), UniProt Q15116 25-170); assay: Western blot of PD-1-Fc proteins
# T2 construct: also called PD-1 with a mutant glycosylation site at position 74; not shown: Fc portion
# [3] = target: T3, PD-1-His (Homo sapiens (Human), UniProt Q15116 25-170, limits assumed); assay: BIACORE (SPR), antigen PD-1-His
# T3 construct: also called glycosylated PD-1 (BIACORE antigen); not shown: His tag
# [4] = target: T4, wild type (glycosylated) PD-1 expressed on 293T cells (PD-1-Flag) (human, UniProt Q15116 25-288, N-linked glycosylation at N49, N58, N74 and N116); assay: flow cytometry on 293T cells; reference: 4NQ PD-1 cells
# T4 construct: also called PD-1 WT; not shown: Flag tag
# Procedure: (§1) Flow Cytometry. Cells overexpressing PD-1 wild type and mutant proteins or control vector were isolated by trypsinization and collected in Cell Staining Buffer (CSB) (BioLegend, San Diego, Calif., US) at 2×10⁶ cells/mL. 50 μL of cells were aliquoted to a 96 well round-bottom plate, to which 50 μL of 20 μg/mL primary antibody was added, followed by gentle mixing and 1 h incubation at 4° C. in the dark. Cells were washed with CSB, incubated with anti-mouse IgG-PE conjugate (10 μg/mL) with DAPI (1:100) 30 minutes 21° C. in the dark. Cells were washed and data acquired using Guava EasyCyte HT (Millipore Darmstadt, Del.) or FACS Celesta (Becton Dickinson, Franklin Lakes, N.J., US) flow cytometer.
# [5] = target: T4, wild type (glycosylated) PD-1 expressed …; assay: flow cytometry on 293T cells expressing the PD-1 form, labeled secondary antibody
# Procedure: as §1
# [6] = target: T5, N49Q mutant PD-1 expressed on 293T cells (PD-1-Flag) (human, UniProt Q15116 25-288); assay: as above
# T5 construct: also called N49Q PD-1; not shown: Flag tag
# Procedure: as §1
# [7] = target: T6, N58Q mutant PD-1 expressed on 293T cells (PD-1-Flag) (human, UniProt Q15116 25-288); assay: as above
# T6 construct: also called N58Q PD-1; not shown: Flag tag
# Procedure: as §1
# [8] = target: T7, N74Q mutant PD-1 expressed on 293T cells (PD-1-Flag) (human, UniProt Q15116 25-288); assay: as above
# T7 construct: also called N74Q PD-1; not shown: Flag tag
# Procedure: as §1
# [9] = target: T8, N116Q mutant PD-1 expressed on 293T cells (PD-1-Flag) (human, UniProt Q15116 25-288); assay: as above
# T8 construct: also called N116Q PD-1; not shown: Flag tag
# Procedure: as §1
# [10] = target: B2; assay: as above
# Procedure: as §1
# [11] = target: B2; assay: flow cytometry on 293T cells expressing 4NQ PD-1, anti-mouse IgG-PE secondary
# Procedure: as §1
# [12] = target: T5, N49Q mutant PD-1 expressed on 293T …; assay: flow cytometry on 293T cells expressing N49Q PD-1, anti-mouse IgG-PE secondary
# Procedure: as §1
# [13] = target: T7, N74Q mutant PD-1 expressed on 293T …; assay: flow cytometry on 293T cells expressing N74Q PD-1, anti-mouse IgG-PE secondary
# Procedure: as §1
# [14] = target: T8, N116Q mutant PD-1 expressed on 293T …; assay: flow cytometry on 293T cells expressing N116Q PD-1, anti-mouse IgG-PE secondary
# Procedure: as §1
# [15] = target: T4, wild type (glycosylated) PD-1 expressed …; assay: inhibition of PD-L1-Fc binding to 293T cells overexpressing PD-1, IncuCyte fluorescence imaging
# Procedure: Green fluorescence was measured every 2 hours by IncuCyte™ Zoom device and quantitated by IncuCyte™ Zoom Software (Essen BioScience, Ann Arbor, Mich., USA).
# [16] = target: T4, wild type (glycosylated) PD-1 expressed …; assay: flow cytometry on 293T cells expressing wild type PD-1 against 293T cells expressing 4NQ PD-1, labeled secondary antibody
# Procedure: as §1
# [17] = target: T5, N49Q mutant PD-1 expressed on 293T …; assay: flow cytometry on 293T cells expressing the PD-1 variant, anti-mouse IgG-PE secondary, DAPI-negative population gated; percent of cells right of the dashed gate; 293T blank cells give 2.71
# Procedure: as §1
# [18] = target: T7, N74Q mutant PD-1 expressed on 293T …; assay: as above
# Procedure: as §1
# [19] = target: T8, N116Q mutant PD-1 expressed on 293T …; assay: as above
# Procedure: as §1
# [20] = target: B2; assay: as above
# Procedure: as §1
# [21] = target: T9, recombinant human PD-L1-Fc chimera protein (R&D Systems) (human, UniProt Q9NZQ7 19-239); assay: live-cell imaging (IncuCyte) of labeled PD-L1-Fc on 293T cells
# T9 construct: Bought reagent; Used fluorescently labeled or detected with anti-human-Fc Alexa Fluor 488; also called PD-L1-Fc fusion protein; not shown: Fc portion, detected with anti-human IgG
# T9 sequence (Q9NZQ7 19-239 limits assumed, change not shown): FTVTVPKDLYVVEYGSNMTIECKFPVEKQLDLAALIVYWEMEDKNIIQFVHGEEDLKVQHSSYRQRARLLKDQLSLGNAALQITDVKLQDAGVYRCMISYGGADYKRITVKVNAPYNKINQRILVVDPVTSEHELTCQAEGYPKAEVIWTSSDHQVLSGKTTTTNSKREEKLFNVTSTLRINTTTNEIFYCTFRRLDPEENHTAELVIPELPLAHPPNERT
# Source text: PD-L1 and PD-1 (PD-L1/PD-1) interaction assay. […] The secondary antibodies used were anti-human Alexa Fluor 488 dye conjugate (Life Technologies). The fluorescence intensity of Alexa Fluor 488 dye was then monitored using a real-time microscope IncuCyte (Essen BioScience, Ann Arbor, Mich., USA).
# Ligand and receptor binding was quantified by IncuCyte™Zoom every hour, according to the manufacturer's instructions.
binder,measurement,setting,value
B1,binding result,[1],no binding (tested: 0.5 µg protein on the blot)
same,binding result,[2],no binding (tested: 0.5 µg protein on the blot)
same,Kd,[3],296 nM
same,koff,[3],0.0053 s⁻¹
same,kon,[3],17900 M⁻¹ s⁻¹
same,fold MFI on wild type PD-1 against unglycosylated 4NQ mutant PD-1,[4],~43 fold
same,MFI,[5],1140 MFI
same,MFI,[6],32 MFI
same,MFI,[7],413 MFI
same,MFI,[8],29 MFI
same,MFI,[9],31 MFI
same,MFI,[10],26 MFI
same,binding result,[11],no binding
same,binding result,[12],no binding
same,binding result,[13],no binding
same,binding result,[14],no binding
same,EC50,[15],0.11 µg/mL
same,fold MFI against binding to the unglycosylated 4NQ mutant PD-1,[16],~43 times
same,Unit (%) (cells in the positive gate),[17],4.6%
same,Unit (%) (cells in the positive gate),[18],7.71%
same,Unit (%) (cells in the positive gate),[19],4.12%
same,Unit (%) (cells in the positive gate),[20],1.82%
B2,binding result,[21],no binding
